# Measurements from article PMC7486399.
# Molecular target: angiotensin-converting enzyme 2 (ACE2) protein, purified (UniProt Q9BYF1)
# Assay: AFM single-molecule force spectroscopy (FD-curve-based AFM)
substance,measurement,value
SARS-CoV-2 spike glycoprotein receptor-binding domain (from UniProt P0DTC2 319-541) (domain or fragment),Kd,120 nM
same,bond lifetime τ,111 ms
same,interaction time,0.25 ms
